Data: paper PMC4423116, “Tarantula toxins use common surfaces for interacting with Kv and ASIC ion channels” (eLife, 2015)

Columns and labels:
[1] = analysis of quenching profiles with brominated lipids; ref Phillips et al., 2005; Swartz, 2007; Jung et al., 2010; Mihailescu et al., 2014; cited from earlier work
From the text: The results thus far reveal that both classes of tarantula toxins interact quite favorably with lipid membranes. […] For example, the solvent accessible surface area for the hydrophobic surface of PcTx1 is 380 Å^2, which compares with a value of 703 Å^2 for GxTx-1E. In addition, the hydrophobic surfaces on the two toxins are situated on distinct surfaces (Figure 1D,E). These differences between PcTx1 an ...

[2] = Depth-dependent quenching of Trp fluorescence by brominated (diBr) phosphatidylcholines; assay type: physicochemical; conditions: 6,7-, 9,10- or 11,12-diBr PC : POPG 1:1 vesicles, 1.2 mM lipid
Method: For depth-dependent fluorescence quenching experiments with brominated lipids, LUVs contained a 1:1 molar ratio of POPG and POPC 6,7-, 9,10-, or 11,12-1-palmitoyl-2-stearoyl(dibromo)-sn-glycero-3-phosphocholine (diBr; Avanti Polar Lipids, Alabaster, AL). Fluorescence spectra were recorded between 300 and 450 nm using an excitation wavelength of 280 nm, corrected for vesicle scattering and normalized to the zero lipid fluorescence intensity.

[3] = Acrylamide dequenching by lipid vesicles (quenching-enhanced fluorescence titration); assay type: physicochemical; conditions: LUVs POPC:POPG 1:1
Method: (§1) Protection of tryptophan fluorescence from acrylamide quenching was examined in the absence and presence of lipids (toxin: lipid = 1:500) by titration with increasing concentrations of acrylamide ([Milescu et al., 2007]). The Stern–Volmer quenching constant (KSV) was calculated based on the best fits of the following equation to the data: F0/F = 1 + KSV[Q], where F0 and F are fluorescence of the toxin in the absence and presence of acrylamide, and [Q] is the concentration of acrylamide. […] A solution containing ∼ 2 µM toxin and 0.3 M acrylamide was stirred continuously with addition of increasing concentrations of LUVs composed of 1:1 mixture of POPC and POPG. Fluorescence spectra (averaging three spectra) were recorded between 300 and 450 nm (5 nm band pass, 0° polarizer) using an excitation wavelength of 280 nm (5 nm band pass, 90° polarizer) (SPEX FluoroMax 3 spectrofluorometer) and corrected for vesicle scattering. For calculating mole–fraction partitioning coefficients (Kdx), the maximal fluorescence intensity (F at λmax) was measured and normalized to the zero lipid fluorescence intensity (F0). […]

[4] = Membrane partitioning into lipid vesicles detected with intrinsic Trp fluorescence (blue shift); assay type: physicochemical; conditions: lipid vesicles POPC:POPG 1:1
Method: Large unilamellar vesicles (LUVs) were prepared by drying the phospholipids from a chloroform solution under a nitrogen stream. The dried lipid film was rehydrated in buffer containing 10 mM HEPES, 1 mM EDTA, pH 7.6 (HEB). The resulting dispersions were extruded through 100 nm pore size polycarbonate filters (Millipore Corp.) till the solution became clear. All fluorescence measurements were performed in quartz cuvettes with 1 cm path length. Fluorescence spectra (averaging three spectra) were recorded between 300 and 450 nm (5 nm band pass, 0° polarizer) using an excitation wavelength of 280 nm (5 nm band pass, 90° polarizer) (SPEX FluoroMax 3 spectrofluorometer) and corrected for vesicle scattering. […] Mole-fraction partitioning coefficients (Kx) were calculated by measuring the fluorescence intensity (F) at 320 nm and normalizing to the zero lipid fluorescence intensity (F0) ([Ladokhin et al., 2000]; [Milescu et al., 2007]). Kx was calculated based on the best fits of the following equation to the data: F/F0(L) = 1 + (F/F0^max − 1)Kx[L]/([W] + Kx[L]), where F/F0(L) is the change in fluorescence intensity for a given concentration of lipid, F/F0^max is the maximum fluorescence increase at high lipid concentrations, [L] is the average available lipid concentration (60% of total lipid concentration) and [W] is the molar concentration of water (55.3 M).

Kv2.1-ASIC1a chimeras = assay: Effect of PcTx1 on G-V relations of Kv2.1-ASIC1a chimeras in oocytes; assay type: cell-based; conditions: 5 µM PcTx1, extracellular application, external 50 mM KCl, n = 3
From the text: Chimeras were generated using sequential PCR with the Kv2.1∆7 channel ([Li-Smerin and Swartz, 1998]) as template. Primers encoding the 9-amino acid sequence of helix-5 from ASIC1a were utilized for overlap PCR. The DNA sequence of all constructs and mutants was confirmed by automated DNA sequencing. Complementary RNA (cRNA) was synthesized using T7 polymerase (mMessage mMachine kit; Ambion) after linearizing the DNA with appropriate restriction enzymes.
Oocytes from Xenopus laevis were removed surgically and incubated with agitation for 1 hr in a solution containing (in mM) 82.5 NaCl, 2.5 KCl, 1 MgCl2, 5 HEPES, pH 7.6 (with NaOH), and collagenase (2 mg/ml; Worthington Biochemical). Defolliculated oocytes were injected with cRNA encoding the Kv2.1 channel constructs and incubated at 17°C in a solution containing (in mM) 96 NaCl, 2 KCl, 1 MgCl2, 1.8 CaCl2, 5 HEPES, pH 7.6 with NaOH, and gentamicin (50 μg/ml, GIBCO-BRL), for 16–72 hr before electrophysiological recording. Oocyte membrane voltage was controlled using an OC-725C oocyte clamp (Warner Instruments). Data were filtered at 1 kHz and digitized at 10 kHz. Microelectrode resistances were 0.1–1 MΩ when filled with 3 M KCl. […] All experiments were performed at room temperature (∼22°C). Voltage-activations relationships in the absence and presence of different concentrations of the synthesized toxin were recorded. […]

ASIC1a = conditions: ref Chen et al., 2006; Dawson et al., 2012; cited from earlier work
From the text: PcTx1 also contains an Arg finger motif composed of R26, R27 and R28 that is required for […] of ASIC through interactions with channel residues situated in a crevice between subunits. In the case of voltage-sensor toxins such as hanatoxin and GxTx-1E, the S3b helix within the voltage-sensing domains of Kv channels co ...

Kv2.1 channel = target: T1, Kv2.1 channel (Rattus norvegicus, UniProt P15387); assay: Inhibition of Kv2.1 channel currents in Xenopus oocytes (two-electrode voltage clamp), apparent affinity; assay type: cell-based
T1 construct: expressed in transfected cells; host or cells: Xenopus laevis oocytes, cRNA injection
T1 sequence (P15387 1-857): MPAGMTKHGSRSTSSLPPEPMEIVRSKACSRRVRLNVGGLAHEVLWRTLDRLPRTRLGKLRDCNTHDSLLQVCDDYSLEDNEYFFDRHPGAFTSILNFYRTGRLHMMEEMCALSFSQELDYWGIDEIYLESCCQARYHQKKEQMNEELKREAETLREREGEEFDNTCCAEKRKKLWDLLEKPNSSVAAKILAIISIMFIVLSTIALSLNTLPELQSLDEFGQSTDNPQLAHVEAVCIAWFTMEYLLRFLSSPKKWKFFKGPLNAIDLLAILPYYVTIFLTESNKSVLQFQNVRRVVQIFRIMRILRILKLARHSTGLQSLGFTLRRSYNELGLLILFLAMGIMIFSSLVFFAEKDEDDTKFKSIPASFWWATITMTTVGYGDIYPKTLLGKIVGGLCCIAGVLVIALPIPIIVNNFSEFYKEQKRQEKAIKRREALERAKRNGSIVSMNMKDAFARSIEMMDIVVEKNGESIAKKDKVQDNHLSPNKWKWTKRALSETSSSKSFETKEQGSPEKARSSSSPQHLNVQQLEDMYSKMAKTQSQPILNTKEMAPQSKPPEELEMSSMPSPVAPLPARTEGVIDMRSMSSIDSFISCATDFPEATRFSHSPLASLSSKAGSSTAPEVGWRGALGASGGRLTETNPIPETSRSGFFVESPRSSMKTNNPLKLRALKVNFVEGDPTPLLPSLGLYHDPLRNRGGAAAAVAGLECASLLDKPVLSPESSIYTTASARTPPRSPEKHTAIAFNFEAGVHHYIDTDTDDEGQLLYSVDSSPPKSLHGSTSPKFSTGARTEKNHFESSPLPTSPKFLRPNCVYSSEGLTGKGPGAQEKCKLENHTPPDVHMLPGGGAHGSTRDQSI

[5] = Acrylamide quenching of Trp fluorescence (Stern-Volmer), protection by lipid vesicles; assay type: physicochemical; conditions: n = 3
Method: as §1

For hanatoxin, which “position of Trp residues from the center of the bilayer” value [1] is on record?
The value was 8–9 Å.

What does the source list for PcTx1?
quenching of Trp fluorescence by brominated lipids (in words) [2]: very weak quenching; Kdx (mole-fraction partitioning coefficient from acrylamide dequenching) ([3]; maximal fluorescence intensity vs available lipid, ∼2 µM toxin, acrylamide 0.2 M / 0.3 M (methods), mean ± SEM (n = 3)): (4.3 ± 0.6) × 10^6; F/F0^max (dequenching function fit) ([3]; maximum fluorescence increase at highest lipid concentration, acrylamide present): 2.7 ± 0.08; maximal blue shift of Trp emission spectrum upon addition of lipid vesicles [4]: ~2 nm; effect on activity of five Kv2.1-ASIC1a chimeras (G-V relations) (Kv2.1-ASIC1a chimeras): no discernible effect; affinity for ASIC1a (in words) (ASIC1a): nM affinity; effect on the Kv2.1 channel (G-V relation) (Kv2.1 channel; 5 µM PcTx1, oocytes, external solution 50 mM KCl, tail currents, n = 3): no effect; Ksv (Stern–Volmer constant), acrylamide quenching in aqueous solution ([5]; toxin ∼2 µM in solution, no lipid): 29.2 M⁻¹; Ksv (Stern–Volmer constant), acrylamide quenching in presence of lipid vesicles ([5]; toxin ∼2 µM with 1.0 mM POPC:POPG 1:1 vesicles (toxin:lipid 1:500)): 11.2 M⁻¹

For `CC(C)C[C@@H]1NC(=O)CNC(=O)[C@H](Cc2c[nH]c3ccccc23)NC(=O)[C@H](CCCCN)NC(=O)[C@@H]2CCCN2C(=O)[C@H](CO)NC(=O)[C@@H]2CSSC[C@@H]3NC(=O)[C@H](CCCCN)NC(=O)[C@H](Cc4c[nH]c5ccccc45)NC(=O)[C@H](Cc4c[nH]c5ccccc45)NC(=O)[C@H](Cc4ccccc4)NC(=O)CNC(=O)CNC(=O)[C@@H](NC(=O)[C@H](CCC(=O)O)NC(=O)CNC(=O)[C@@H](N)CCC(=O)O)CSSC[C@H](NC(=O)[C@H](CSSC[C@@H](C(=O)N[C@@H](CC(N)=O)C(=O)N[C@@H](Cc4ccccc4)C(=O)N4CCC[C@H]4C(=O)N[C@@H](C)C(=O)N4CCC[C@H]4C(=O)O)NC1=O)NC(=O)[C@H](C)NC(=O)[C@@H]1CCCN1C(=O)[C@H](CCCCN)NC(=O)CNC(=O)[C@H](CO)NC(=O)CNC3=O)C(=O)N1CCC[C@H]1C(=O)N[C@@H](CCCCN)C(=O)N[C@@H](Cc1ccc(O)cc1)C(=O)N[C@@H](C(C)C)C(=O)N2` [Nle35A], which “∆∆G (perturbation energy)” value (Kv2.1 channel; from apparent Kd of mutant vs GxTx-1E(Nle), Kv2.1 in oocytes) is on record?
The value was 0.795 kJ/mol.
